Experimental data as given in US6613358B2, “Sustained-release composition including amorphous polymer” (priority 1998, dated 2003).
Several values for one entry are separate records, joined by “and”; a condition that tells them apart may be missing. Equal values may be shown once. Peptide text beside a SMILES is read from it.

Key:
[1] = Apparent partition coefficient water/1-octanol upon SDS addition
Source text: The relative solubilities in two phases is given in terms of an apparent partition coefficient. The apparent partition coefficient is defined as the ratio of the equilibrium concentration in an organic phase to that in an aqueous phase. The actual value of the apparent partition coefficient, P, is dependent on the two solvent systems employed. In all cases herein described, the organic phase is 1-octanol and the aqueous phase is water alone or with a minimal amount of HCl added.
Apparent partition coefficients were measured by dissolving a peptide in 1.25 ml of an aqueous solution. Before SDS addition, the pH was measured on a Beckman pH meter. […] An equal volume of 1-octanol was added and the mixtures agitated, and then left undisturbed for several hours. Prior to analysis, the tubes were spun for 10 minutes at 4000 g. Each layer was removed and the absorbance measured on a Beckman DU-64 UV-visible spectrophotometer using I cm quartz cells. All apparent partition coefficients were corrected for changes in pH with differing SDS concentrations.
Results are described as logarithms of the apparent partition coefficient. A log P value of 0 means that the compound is equally soluble in water and the organic phase. […] All of the log P values reported herein have been corrected for slight changes in solubility with pH.

[2] = Surface tension, critical micelle concentration; format: physicochemical; details: in 0.1 N HCl
Procedure: Surface tension was measured using a Fisher surface tensiometer. Briefly, a platinum iridium ring with a diameter of 6 cm was lowered into the appropriate dilution of detergent in 0.1 N HCl. Surface tension was read at the point where the force on the ring upwards caused the ring to break contact with the liquid surface.

COS-7 cells [3] = test: Cytotoxicity, MTS cell proliferation assay; format: cell-based, green monkey
Procedure: (§1) The cytotoxicity of arginine dodecyl ester was investigated in cell culture with two types of cells (see Cory et al, Cancer Commun., 3, 207-212 (1991)): CCRF-CEM cells, a human T-cell leukemia cell line that grows in suspension (obtained from the American Type Culture Collection, ATCC); and a green monkey kidney cell line (COS-7) that grows in monolayers (also obtained from ATCC). For comparison, the cells were also exposed to […] bromide (DTAB) (Sigma).
Cells were plated into 96-well plates (Corning) in a total of 200 μL Dulbecco's modified minimal essential medium for COS-7 cells, RPMI 1640 for CEM cells, supplemented with penicillin G (50 U/ml), streptomycin sulfate (50 μg/ml), and 10% fetal calf serum, at 10,000 cells/well for COS-7 and 50,000 cells/well for CEM cells. The plates were incubated at 37° C. for 24 hours after plating. The cells were then exposed to various concentrations of the detergents. Each detergent concentration was used in 8 replicate wells. After 2-6 hours, media/detergent solutions were aspirated, and the wells were washed twice with PBS. For CEM suspension cells, centrifugation of the suspension at 1000× g for 5 min between each wash was required. […] After 72 hours, cell proliferation was determined using the Promega CellTiter 96 AQueous Non-Radioactive Cell Proliferation Assay. […]

COS-7 cells [4] = test: Transfection of plasmid pRSV400luc, luciferase activity; format: cell-based, green monkey; details: without liposomes or helper lipids; serum-containing medium
Source text: The plasmid used was pRSV400luc. It was obtained from Dr. David Gordon Div. Endocrinology, University of Colorado School of Medicine, Denver, Colo. It was propagated in Escherichia coil strain DH5a (ATCC), isolated by a standard alkaline-SDS Iysis procedure, and purified twice by isopycnic centrifugation on CsCl gradients (Sambrook et al, Molecular Cloning: A Laboratory Manual (Cold Spring Harbor Laboratory) (1989). COS-7 cells at approximately 50,000 cells per 60 mm diameter plate (Falcon) were used for transfection. Control experiments were done with Lipofectamine (GIBCO/Life Technologies, Gaithersburg, Md.).
In 200 total μl of serum-free medium, plasmid (20 μg) and Lipofectamine or arginine dodecyl ester were mixed and allowed to interact for 45 minutes. […] Plates with cells were washed with serum-free medium. Then, 1 mL serum-free medium was added to plates already containing 2 mL serum-free medium and the plates were incubated at 37° C. for 4 hours. […]
After allowing cells to grow and express gene product for 36-50 hours, the cells were harvested. […] Intensity of luminescence should be proportional to the amount of expressed luciferase and, therefore, the efficiency of transfection. “Background” is the reading from just the substrate mixture on the luminometer before addition of cell lysate. […] Any reading over 100 units is considered significant.

CCRF-CEM cells = test: Cytotoxicity, MTS cell proliferation assay; format: cell-based, human; details: for IC50: Homo sapiens, 2-6 hours exposure, 72 hours incubation, read-out: IC50 (half-maximal growth inhibition)
Procedure: as §1
Cells were plated into 96-well plates (Corning) in a total of 200 μL Dulbecco's modified minimal essential medium for COS-7 cells, RPMI 1640 for CEM cells, supplemented with penicillin G (50 U/ml), streptomycin sulfate (50 μg/ml), and 10% fetal calf serum, at 10,000 cells/well for COS-7 and 50,000 cells/well for CEM cells. The plates were incubated at 37° C. for 24 hours after plating. The cells were then exposed to various concentrations of the detergents. Each detergent concentration was used in 8 replicate wells. After 2-6 hours, media/detergent solutions were aspirated, and the wells were washed twice with PBS. For CEM suspension cells, centrifugation of the suspension at 1000× g for 5 min between each wash was required. After washing, 200 μL of fresh medium were added, and the cells were incubated for 72 hours. After 72 hours, cell proliferation was determined using the Promega CellTiter 96 AQueous Non-Radioactive Cell Proliferation Assay.

[5] = Partitioning of anionic compounds with arginine esters; format: physicochemical; details: for log p: pH 5.5 buffer, 1 mg/mL
Procedure: Stock solutions of the arginine esters were made by first dissolving the powder in 0.1 N HCl to give a 10 mM solution and then raising the pH to a value between 5 and 6. The pH should not be raised above 8.
Anionic compounds were dissolved in pH 5.5 buffer (10 mM bis-tris propane, 10 mM CaCl2, 10 mM KCl). Appropriate amounts of the stock solution of arginine ester (see above), the anionic compound and buffer were mixed so that the final concentration of the anionic material was 1 mg/mL. An equal volume of organic solvent was added, and the samples were vortexed for 15 seconds on high speed. Layers were separated by centrifugation at 4000 rpm for 5 minutes. Concentrations of the anionic material in the aqueous and organic layers were determined by UV spectroscopy on a Beckman DU-64 series spectrophotometer.

[6] = Partitioning and dissolution of SDS-insulin complexes in non-aqueous solvents; format: physicochemical; details: for Apparent Sol. / Log P: SDS-insulin complex
Source text: Dissolution of insulin-SDS complexes in other solvents was investigated as well (Table 1). Precipitates of SDS-insulin complexes were isolated and added to various organic solvents. […] Besides alcohols. SDS-insulin complexes are soluble in N-methylpyrrolidone (NMP), trimethylphosphate (TRIP), polyethylene glycol, ethanol, and t-butanol.

[7] = Thermal denaturation (Tm) following molar ellipticity at 222 nm; format: physicochemical
Source text: [define Tm. […] (FIG. 6), which is more than 30 degrees above that observed in water.

[8] = CD spectrometry of protein structure in organic solvent; format: physicochemical; details: extracted from 1-octanol into 0.10 M HCl; 53 ug/ml, 5° C.
Procedure: CD spectra were recorded on an Aviv 62DS spectrophotometer equipped with a thermoelectric temperature unit. All temperatures were measured ±0.2° C. Samples were placed in strain-free quartz cells (pathlength of 1 mm) and spectra obtained taking data every 0.25 nm using a three second averaging time, and having a spectral bandwidth of 1 nm.
The pathlength was 1 mm, the sample concentration 53 ug/ml, and the sample temperature 5° C.

[9] = Solubility of arginine octyl ester powder; format: physicochemical
[10] = format: physicochemical
Source text: Larger proteins can also form complexes with SDS. […] At higher SDS concentrations, hGH redissolves, presumably via micellar solubilization. […] Other proteins can also form complexes with SDS. Bovine pancreatic trypsin inhibitor (BPTI) is a small basic protein (MW 5900) with a well defined and stable structure (Wlodawer et. al. (1984) J. Mol. Biol. 180:301-329, and (1987) J. Mol. Biol. 193:145-156). […] In TMP, the globular structure is compromised, as determined by CD spectroscopy. Apparently, TMP is a strong enough solvent to displace water from the hydration sphere and destabilize the structure of BPTI. This mechanism of protein denaturation has been described in detail by Arakawa and […] (1982) Biochemistry 21:6536-6544. and (1982) Biochemistry 21:6545-6552.

[11] = Melting point of SDS:insulin ion pairs in 1-octanol (CD signal and absorbance at 222 nm); format: physicochemical
Procedure: Equal volumes of octanol were added to each SDS:insulin solution to partition the insulin into the octanol phase. […] Both circular dichroism (CD) signal and light scattering (as measured by changes in absorbance) were measured at 222 nm and the melting point determined by an inflection point in the measured scan.

[12] = organic solvent Propylene Glycol
[13] = organic solvent Trifluoroethanol
[14] = organic solvent Trimethyl phosphate

For Gly-Phe-NH2, the “partitioning of SDS complex into 1-octanol” value ([1]; pH 7, 1:1 complex with SDS) was “readily partitions into 1-octanol”.
For `CCCCCCCCCCCCOC(=O)[C@@H](N)CCCNC(=N)N` [arginine dodecyl ester], the “critical micelle concentration (cmc)” value [2] was “approximately 0.3 mM and ~0.10 mg/ml”, the “toxicity relative to DTAB” value (COS-7 cells [3]) was “approximately two-fold less toxicity” and the “transfection of the plasmid” value (COS-7 cells [4]) was “promoted transfection of the plasmid in a concentration and time dependent manner”. For the same compound, the “toxicity relative to DTAB” value (CCRF-CEM cells) was “seven-fold less toxicity” and the IC50 (CCRF-CEM cells) was 150 µM.
For `CCCCCCCCCCCCCC[N+](C)(C)C` [DTAB, tetradecyltrimethylammonium bromide, reference compound], the IC50 (COS-7 cells [3]; Chlorocebus sabaeus, 2-6 hours exposure, 72 hours incubation, read-out: IC50 (half-maximal growth inhibition)) was 80 µM and the IC50 (CCRF-CEM cells) was 20 µM.
`Cc1ccc(S(=O)(=O)[O-])cc1.[Na+]` [p-toluenesulfonic acid, sodium salt] showed a log p ([5]; Ester C8 (arginine octyl ester), solvent isooctane) of −2.2, a log p ([5]; Ester C8 (arginine octyl ester), solvent octanol) of −0.353 and a log p ([5]; Ester C12 (arginine dodecyl ester), solvent octanol) of −0.336. The log p ([5]; Ester none, solvent isooctane) was −2.7 and the log p ([5]; Ester none, solvent octanol) was −1.62.
With `NCC(=O)N[C@@H](Cc1ccccc1)C(=O)O` [Gly-Phe] (H-Gly-Phe-OH) the “enhancement of partition coefficient with SDS” value ([1]; neutral pH (zwitterionic form)) was “little enhancement of the partition coefficient is observed” and the “partitioning with SDS” value ([1]; pH 3) was “mirrors the marked increase seen for Gly-PheNH2”.
In the case of insulin, the “Apparent Sol.” value ([6]; organic solvent 1-Chlorooctane) is reported as “insoluble”, the “Log P” value ([6]; organic solvent 1-Chlorooctane) is reported as “not detectable” and the “Apparent Sol.” value ([6]; organic solvent 1-octanol) is reported as “≧1.0 mg/ml”. The “Log P” value ([6]; organic solvent 1-octanol) was “≧1.2”, the “Log P” value ([6]; organic solvent Acetone) was “miscible” and the “Apparent Sol.” value ([6]; organic solvent CCl4) was “insoluble”. For the same compound, the “Log P” value ([6]; organic solvent CCl4) was “not detectable”, the “Apparent Sol.” value ([6]; organic solvent CH2Cl2) was “insoluble” and the “Log P” value ([6]; organic solvent CH2Cl2) was “not detectable”. The “Apparent Sol.” value ([6]; organic solvent DMF) was “≧1.0 mg/ml”, the “Log P” value ([6]; organic solvent Dimethoxyethane) was “not detectable” and the “Apparent Sol.” value ([6]; organic solvent Ethanol) was “≧1.0 mg/ml”. The “Log P” value ([6]; organic solvent Ethanol) was “miscible”, the “Apparent Sol.” value ([6]; organic solvent Ether) was “insoluble” and the “Log P” value ([6]; organic solvent Ether) was “not detectable”. The “Apparent Sol.” value ([6]; organic solvent Ethyl acetate) was “insoluble”, the “Log P” value ([6]; organic solvent Ethyl acetate) was “miscible” and the “Apparent Sol.” value ([6]; organic solvent Hexane) was “insoluble”. The “Log P” value ([6]; organic solvent Hexane) was “not detectable”, the “Apparent Sol.” value ([6]; organic solvent Methanol) was “≧1.0 mg/ml” and the “Log P” value ([6]; organic solvent Methanol) was “miscible”. The “Apparent Sol.” value ([6]; organic solvent Mineral Oil) was “insoluble”, the “Log P” value ([6]; organic solvent Mineral Oil) was “not detectable” and the “Apparent Sol.” value ([6]; organic solvent NMP) was “≧1.0 mg/ml”. The “Log P” value ([6]; organic solvent NMP) was “miscible”, the “Apparent Sol.” value ([6]; organic solvent PEG 400) was “≧0.2 mg/ml” and the “Log P” value ([6]; organic solvent PEG 400) was “miscible”. The “Apparent Sol.” value [6, 12] was “≧0.5 mg/ml”, the “Log P” value [6, 12] was “miscible” and the “Log P” value ([6]; organic solvent THF) was “miscible”. The “Apparent Sol.” value ([6]; organic solvent TMP) was “≧0.2 mg/ml”, the “Log P” value ([6]; organic solvent TMP) was “miscible” and the “Apparent Sol.” value [6, 13] was “≧0.5 mg/ml”. The “Log P” value [6, 13] was “miscible”, the “Apparent Sol.” value [6, 14] was “≧0.15 mg/ml” and the “Log P” value [6, 14] was “miscible”. The “Apparent Sol.” value ([6]; organic solvent i-Propanol) was “≧1.0 mg/ml”, the “Log P” value ([6]; organic solvent i-Propanol) was “miscible” and the “Tm in 1-octanol above that observed in water” value [7] was “more than 30 degrees”. The “Tm of thermal denaturation” value ([7]; in 1-octanol (SDS complex), molar ellipticity at 222 nm) was 98 °C, the “Tm of thermal denaturation” value ([7]; in aqueous solution) was “about 65 °C” and the “structure by CD after extraction back into aqueous phase” value [8] was “overall structure similar to that of native insulin”.
For `CCCCCCCCOC(=O)[C@@H](N)CCCNC(=N)N` [arginine octyl ester], the “dissolution in HCl” value [9] was “would only dissolve in 0.1 N or stronger HCl”, the solubility in water [9] was “insoluble” and the solubility in organics ([9]; alcohols, hydrocarbons, aromatics, DMF and pyridine) was “insoluble”. The “critical micelle concentration (cmc)” value [2] was “about 6 mM and ~2.2 mg/ml”.
In the case of “bovine serum albumin: protein tested for partitioning with arginine dodecyl ester”, the “partitioning into octanol layer” value ([5]; arginine dodecyl ester added, solutions turned cloudy) is reported as “none would partition into octanol layer”.
For hGH: human growth hormone, the “solubility of SDS precipitate in 1-octanol” value [10] was “not found to be soluble”, the “aqueous behaviour on addition of SDS” value ([10]; pH 2) was “precipitates from aqueous solution” and the “aqueous solubility on addition of SDS” value ([10]; pH 7.8) was “not affected”.
In the case of “insulin-SDS complex: hydrophobic ion pair complex of insulin with sodium dodecyl sulfate”, the “melting point in octanol (apparent maximum)” value ([11]; 6:1 SDS:insulin molar ratio, 200 ug/ml) is reported as “about 116 °C”, the “melting point in octanol, absorbance scan at 222 nm” value ([11]; 9:1 SDS:insulin molar ratio) is reported as 106 °C and the “melting point in octanol, CD scan at 222 nm” value ([11]; 9:1 SDS:insulin molar ratio, maxima of first derivative) is reported as 106 °C. For the same compound, the “solubility in organic solvents” value [6] was “soluble” and the “structure after prolonged heating” value ([7]; in 1-octanol, 70° C. for more than 1 hour) was “appears to maintain its native structure”.
With `NC(=O)CC[C@@H]1NC(=O)[C@H](Cc2ccccc2)NC(=O)[C@H](Cc2ccc(O)cc2)NC(=O)[C@@H](N)CSSC[C@@H](C(=O)N2CCC[C@H]2C(=O)N[C@@H](CCCN=C(N)N)C(=O)NCC(N)=O)NC(=O)[C@H](CC(N)=O)NC1=O` [AVP, 8-Arg-vasopressin] the log p ([1]; pH 7) was > 1 and the “increase of apparent partition coefficient” value ([1]; upon stoichiometric SDS addition, water/1-octanol) was “nearly four orders of magnitude”.
